Test results from publication PMC9459030 (Journal of Ginseng Research, 2021).
Where no end group is shown, it is not given here. [ ]: non-standard residue; d: D form. pS = N[C@@H](COP(=O)(O)O)C(=O)O

Target: T1, 14-3-3 ζ protein (UniProt P63104 1-245)
T1 sequence (looked up): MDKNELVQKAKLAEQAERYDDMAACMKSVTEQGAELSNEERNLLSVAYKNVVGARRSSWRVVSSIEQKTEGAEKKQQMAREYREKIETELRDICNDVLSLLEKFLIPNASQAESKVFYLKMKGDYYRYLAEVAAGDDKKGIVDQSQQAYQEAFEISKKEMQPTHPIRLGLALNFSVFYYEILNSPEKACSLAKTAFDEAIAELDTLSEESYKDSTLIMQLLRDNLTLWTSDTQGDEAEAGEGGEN
Test: BLI

## GRPRTT[pS]FAE [p-Ser9 GSK 3β polypeptide (Gly3-pSer9-Glu12)]
  Kd: 46.8 µM
  koff: 0.0185 s⁻¹
  kon: 579 M⁻¹ s⁻¹
